Data published in PMC6477152 (2019).

B1: FIP200ΔN1115:Luciferase [human] / GST:NAP1aa5–75 [human] (parent complex)
chain 1: ENYQVGLAELRTLMTIEKDQCISELISRHEEESNILKAELNKVTSLHNQAFEIEKNLKEQIIELQSKLDSELSALERQKDEKITQQEEKYEAIIQNLEKDRQKLVSSQEQDREQLIQKLNCEKDEAIQTALKEFKLEREVVEKELLEKVKHLENQIAKSPAIDSTRGDSSSLVAELQEKLQEEKAKFLEQLEEQEKRKNEEMQNVRTSLIAEQQTNFNTVLTREKMRKENIINDLSDKLKSTMQQQERDKDLIESLSEDRARLLEEKKKLEEEVSKLRSSSFVPSPYVATAPELYGACAPELPGESDRSAVETADEGRVDSAMETSMMSVQENIHMLSEEKQRIMLLERTLQLKEEENKRLNQRLMSQSMSSVSSRHSEKIAIRDFQVGDLVLIILDERHDNYVLFTVSPTLYFLHSESLPALDLKPGEGASGASRRPWVLGKVMEKEYCQAKKAQNRFKVPLGTKFYRVKAVSWNKKV
chain 2: VEDDICILNHEKAHKRDTVTPVSIYSGDESVASHFALVTAYEDIKKRLKDSEKENSLLKKRIRFLEEKLIA
B2: FIP200ΔN1115:Luciferase [human] / GST:SINTBADaa5-85 [human] (parent complex)
chain 1: B1 chain 1
chain 2: FEDDISILTQEALGPSEVWLDSPGDPSLGGDMCSASHFALITAYGDIKERLGGLERENATLRRRLKVYEIKYPLISDFGEE
B3: FIP200ΔN1115:Luciferase [human] / GST:NDP52 [human] (parent complex)
chain 1: B1 chain 1
chain 2: MEETIKDPPTSAVLLDHCHFSQVIFNSVEKFYIPGGDVTCHYTFTQHFIPRRKDWIGIFRVGWKTTREYYTFMWVTLPIDLNNKSAKQQEVQFKAYYLPKDDEYYQFCYVDEDGVVRGASIPFQFRPENEEDILVVTTQGEVEEIEQHNKELCKENQELKDSCISLQKQNSDMQAELQKKQEELETLQSINKKLELKVKEQKDYWETELLQLKEQNQKMSSENEKMGIRVDQLQAQLSTQEKEMEKLVQGDQDKTEQLEQLKKENDHLFLSLTEQRKDQKKLEQTVEQMKQNETTAMKKQQELMDENFDLSKRLSENEIICNALQRQKERLEGENDLLKRENSRLLSYMGLDFNSLPYQVPTSDEGGARQNPGLAYGNPYSGIQESSSPSPLSIKKCPICKADDICDHTLEQQQMQPLCFNCPICDKIFPATEKQIFEDHVFCHSL

Variants of: B1
Experiment: LUMIER assay; HEK293ET cell lysates; read off a plot

Row | Variant | response [fold binding]
1 | chain 1 A452S | ~12
2 | chain 1 V461S | ~1.7
3 | chain 1 F459S | ~1.4
4 | chain 1 N457S | ~1.4

Variants of: B2
Experiment: LUMIER assay; HEK293ET cell lysates; bacterially expressed GST bait; read off a plot

Row | Variant | response [fold binding]
5 | chain 1 Q352A | ~210
6 | chain 1 L353A | ~170
7 | chain 1 L351A | ~110
8 | chain 1 E348A | ~200
9 | chain 1 L347A | ~99
10 | chain 1 A452S | ~59
11 | chain 1 R349A | ~170
12 | chain 1 T350A | ~180

Variants of: B2
Experiment: LUMIER assay; HEK293ET cell lysates; read off a plot

Row | Variant | response [fold binding]
13 | chain 1 N457S | ~7.8
14 | chain 1 A452S | ~280
15 | chain 1 V461S | ~6.4
16 | chain 1 F459S | ~6.2

Variants of: B3
Experiment: LUMIER assay; HEK293ET cell lysates; bacterially expressed GST bait; read off a plot

Row | Variant | response [fold binding]
17 | chain 1 L353A | ~32
18 | chain 1 T350A | ~51
19 | chain 1 F459S | ~52
20 | chain 1 L347A | ~42
21 | chain 1 R349A | ~33
22 | chain 1 V461S | ~50
23 | chain 1 E348A | ~49
24 | chain 1 A452S | ~22
25 | chain 1 L351A | ~38
26 | chain 1 N457S | ~15
27 | chain 1 Q352A | ~44
